Experimental data as given in article doi:10.1101/2022.04.12.488075.

Target: SARS-CoV-2 Omicron BA.2 spike extracellular domain trimer (SARS-CoV-2 (Omicron BA.2)) (UniProt P0DTC2)

Substance: JMB2002 Fab
- Kd: 2.6 nM

Substance: JMB2002 IgG (antibody)
- Kd: 0.3 nM
